Data reported in article PMC2901844 (DNA repair, 2010).

Columns and labels:
[1] = target: T1, full length Cricetulus griseus Xrcc1-ECFP (Cricetulus griseus, UniProt O54935 1-633); assay: pull-down
[2] = target: T1, full length Cricetulus griseus …; assay: far-Western, overlay or dot blot
Xrcc1(1–325)-ECFP = Xrcc1(1–325)-ECFP (Cricetulus griseus, UniProt O54935 1-325); assay: far-Western, overlay or dot blot
Xrcc1(1–325)-ECFP, sequence (O54935 1-325): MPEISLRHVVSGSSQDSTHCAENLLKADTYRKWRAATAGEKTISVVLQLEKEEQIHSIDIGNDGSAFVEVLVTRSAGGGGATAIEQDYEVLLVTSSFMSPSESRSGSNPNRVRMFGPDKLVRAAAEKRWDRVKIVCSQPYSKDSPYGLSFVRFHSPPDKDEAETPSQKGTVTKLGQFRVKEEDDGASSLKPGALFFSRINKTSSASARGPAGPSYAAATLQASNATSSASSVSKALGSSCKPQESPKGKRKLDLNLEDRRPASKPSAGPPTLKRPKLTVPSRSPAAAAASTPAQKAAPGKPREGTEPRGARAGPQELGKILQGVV

T1 sequence (O54935 whole entry): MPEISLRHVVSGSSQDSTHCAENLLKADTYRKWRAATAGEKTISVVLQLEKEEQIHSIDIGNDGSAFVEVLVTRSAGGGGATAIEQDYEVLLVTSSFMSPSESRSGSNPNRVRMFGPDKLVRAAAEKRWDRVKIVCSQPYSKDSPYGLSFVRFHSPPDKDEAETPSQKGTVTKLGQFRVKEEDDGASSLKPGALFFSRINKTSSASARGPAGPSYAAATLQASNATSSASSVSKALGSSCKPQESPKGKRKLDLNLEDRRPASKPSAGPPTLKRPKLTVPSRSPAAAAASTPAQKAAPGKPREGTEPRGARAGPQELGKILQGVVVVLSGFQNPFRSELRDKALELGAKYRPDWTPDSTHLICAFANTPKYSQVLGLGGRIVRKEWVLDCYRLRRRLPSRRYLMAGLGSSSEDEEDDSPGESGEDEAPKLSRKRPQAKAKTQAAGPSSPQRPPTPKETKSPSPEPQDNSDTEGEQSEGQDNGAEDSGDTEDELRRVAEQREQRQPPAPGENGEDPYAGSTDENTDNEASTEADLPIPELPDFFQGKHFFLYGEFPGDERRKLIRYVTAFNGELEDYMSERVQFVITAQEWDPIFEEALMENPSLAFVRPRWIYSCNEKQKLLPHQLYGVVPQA

B1: catalytic domain of human UNG2 (Δ93 UNG2) (domain or fragment, UniProt P13051-1 94-313, looked up)
chain: FGESWKKHLSGEFGKPYFIKLMGFVAEERKHYTVYPPPHQVFTWTQMCDIKDVKVVILGQDPYHGPNQAHGLCFSVQRPVPPPPSLENIYKELSTDIEDFVHPGHGDLSGWAKQGVLLLNAVLTVRAHQANSHKERGWEQFTDAVVSWLNQNSNGLVFLLWGSYAQKKGSAIDRKRHHVLQTAHPSPLSVYRGFFGCRHFSKTNELLQKSGKKPIDWKEL
B1: binds [1].

B2: Cy-3 labelled Δ93 UNG2 (domain or fragment, human, UniProt P13051-1 94-313, looked up)
chain: FGESWKKHLSGEFGKPYFIKLMGFVAEERKHYTVYPPPHQVFTWTQMCDIKDVKVVILGQDPYHGPNQAHGLCFSVQRPVPPPPSLENIYKELSTDIEDFVHPGHGDLSGWAKQGVLLLNAVLTVRAHQANSHKERGWEQFTDAVVSWLNQNSNGLVFLLWGSYAQKKGSAIDRKRHHVLQTAHPSPLSVYRGFFGCRHFSKTNELLQKSGKKPIDWKEL
modifications: Cy-3 label (Cy 3 Ab Labeling kit), sites not stated
B2: binds [2]; binds (Xrcc1(1–325)-ECFP).
